The test system of data set [1] is intestinal mucosa. The data set is described as follows: Example 2: intestinal mucosal weight in rats after subcutaneous glicentin or control peptides. Particulars: 1 nmol per rat s.c.; for Intestinal mucosal weight: third of four equal parts of small intestine from the duodenum. In kind it is in vivo.
The subject of data set [2] is digestive tracts (gastric antrum, duodenum, jejunum). Nature of the data set: Example 3: motility of the digestive tracts after meal in dogs (strain gauge transducers). Particulars: 400 pmol/kg i.v. over 1 hour. In kind it is in vivo, dog. The protocol: An experiment was performed as described below in order to examine the action of glicentin on a motility of the digestive tracts after meal.
Six hybrid dogs weighing 16-18 kg were sutured with strain gauge transducers (manufactured by Star Medical, F121S) at a site of the gastric antrum 4 cm from the pyloric ring, a site of the duodenum for the main incurrent pancreatic duct and a site of the jejunum 10 cm from the Treitz's ligamentum, respectively, to measure the contractile force intensity of the circular muscle. Recovery period for the suture was 2 weeks.
Three of the 6 dogs were intravenously given over 1 hour 15 ml of a physiological saline solution in which 400 pmol of glicentin had been dissolved per kg of bodyweight. The remaining three received an aqueous physiological solution containing no glicentin in the same way as above as a control for comparison. The dogs were fed on 15 g of a solid diet (SD®, manufactured by Oriental Yeast K. K.) and 15 g of Vitaone® (manufactured by Nihon Pet Food K. K. and Kyodo Shiryo K. K. ) per kg of bodyweight simultaneously with the intravenous administration.
Then, the motor activity of the digestive tracts and length of the post-feed period were measured. Intensity of the contraction in the post-feed period was integrated for the two-hour measurements and evaluated in comparison with the mean level of the signal peak in phase 3 motor activity of the intestinal tracts in hunger and taken as a motor index.

Data set [3] has as its system intestinal mucosae. Nature of the data set: Example 1: nutritional (trophic) effect of glicentin on the intestinal mucosae of rats fed an elemental nutrition. It is filed as in vivo, rat. The settings on record: 10 μg s.c. every 12 hours for 7 days. The method, then: An experiment was performed in male SD rats weighing 140-160 g which had been fed on standard food under light-dark condition of a cycle of 12 hours. The food which was replaced by an elemental nutrition (Elental®, Morishita-Roussel Japan) was taken ad lib., and remained unchanged until the experiment was finished. After feeding on the component nutrition for 3 days, administration of glicentin prepared as described below was started.
Gelatin was dissolved in warm water to a weight ratio of 16%, and the solution autoclaved and cooled to room temperature. To 40 ml of the gelatin solution was added a solution of 1 mg of glicentin in 10 ml of distilled water with stirring at room temperature. The mixture was divided into test tubes, freeze dried and stored for use.
The gelatin solution was subcutaneously given at a dose of 10 μg per glicentin every 12 hours for 7 days to examine a nutritional effect of glicentin on the intestinal mucosae. A similar gelatin solution containing no glicentin was given for the same period of time as a control for comparison. Twelve hours after completion of the final administration, the rats were sacrificed and subjected to removal of the small intestine in the region from the Treitz's ligamentum to the cecum. The removed small intestine was cut at the central site to separate it into the jejunum and the ileum. The lumen of each of the intestinal tracts was gently washed with an aqueous physiological saline solution. The intestinal tracts were longitudinally incised, respectively, and tissues were removed of a portion of the jejunum in proximity to the duodenum, a portion of the ileum in proximity to the cecum and a portion around the boundary between the jejunum and the ileum and fixed in a 3.7% formalin solution as the proximal, distal and middle sites of the small intestine, respectively. Mucosae were collected by ablation with a spatula from the remainder of the intestinal tracts and weighed, respectively.
The tissues fixed in the formalin solution were embedded in paraffin to form a preparation which was stained with hematoxylin-eosin and measured for height of the villi using an optical microscope.

For data set [4], the system named is male BALB/c mice. The data set is described as follows: Intraperitoneal administration of human glicentin to mice, appearance observed. It is filed as in vivo, mouse. The settings on record: 10 mg/kg intraperitoneally, male BALB/c mice (6 weeks age).
The mark [5] stands for this setting: post-feed contraction integrated over two hours relative to phase 3 peak.

Ends that are not written are not given here.

This note sets out measurements from patent US5547938A, “Therapeutic agent for digestive tract diseases using glicentin” (Nisshin Flour Milling Co., Ltd., priority 1993, dated 1996).

In turn, “Glucagon-like peptide-1: peptide hormone which occurs in a region of preproglucagon containing no glicentin (HAEGTFTSDVSSYLEGQAAKEFIAWLVKGR; ends and bridges not checked; UniProt P01275 98-127, looked up) [reference compound]” yielded an Intestinal mucosal weight in data set [1] of 0.498 ± 0.042 g.

B1: Glicentin: Enteroglucagon peptide comprising 69 amino acid residues (SEQ ID NO:1), prepared by genetic engineering procedure (protein)
chain: RSLQDTEEKSRSFSASQADPLSDPDQMNEDKRHSQGTFTSDYSKYLDSRRAQDFVQWLMNTKRNRNNIA
Regarding B1, the “Length of post-feed period” value in data set [2] (simultaneously with feeding) was 13.6 ± 1.0 h. Besides, in data set [2] (setting [5]), the “Motor index, duodenum” value is reported as 0.675 ± 0.4; the “Motor index, jejunum” value was 1.087 ± 0.2; the “Motor index, stomach vestibulum” value is recorded as 0.878 ± 0.1. Besides, in data set [3], the “Ileal mucosal weight per 100 g bodyweight” value is reported as 0.57 ± 0.04 g/100 g bodyweight, the “Jejunal mucosal weight per 100 g bodyweight” value came to 0.75 ± 0.08 g/100 g bodyweight, the “Length of small intestine per 100 g bodyweight” value came out at 66.4 ± 1.7 cm/100 g bodyweight and the “Whole small intestinal mucosal weight per 100 g bodyweight” value was found to be 1.32 ± 0.03 g/100 g bodyweight. Also, the change in appearance result in data set [4] is listed as “no change in appearance”. In addition, the “effect on weight of intestinal mucosa (in words)” value in data set [1] (versus control) was “significantly increases”. For the same molecule, the Intestinal mucosal weight in data set [1] came out at 0.614 ± 0.025 g.
